Source: publication PMC4638040 (2015)

B1: Hsp70 C-terminal peptide GPTIEEVD (residues 634-641), biotin-SGSG at the N terminus [modified: biotin at the N terminus; biotin at the N terminus] [not stated] / Carboxy-terminus of Hsc70-interacting protein (CHIP), His-tagged, wild type … (parent complex)
chain 1: SGSGGPTIEEVD
chain 2: MKGKEEKEGGARLGAGGGSPEKSPSAQELKEQGNRLFVGRKYPEAAACYGRAITRNPLVAVYYTNRALCYLKMQQHEQALADCRRALELDGQSVKAHFFLGQCQLEMESYDEAIANLQRAYSLAKEQRLNFGDDIPSALRIAKKKRWNSIEERRIHQESELHSYLSRLIAAERERELEECQRNHEGDEDDSHVRAQQACIEAKHDKYMADMDELFSQVDEKRKKRDIPDYLCGKISFELMREPCITPSGITYDRKDIEEHLQRVGHFDPVTRSPLTQEQLIPNLAMKEVIDAFISENGWVEDY
B2: Carboxy-terminus of Hsc70-interacting protein (CHIP), His-tagged, wild type [human] / GST-IRF-1 (pDEST-15-codon optimized IRF-1) [not stated] (parent complex)
chain 1: B1 chain 2
chain 2: MPITRMRMRPWLEMQINSNQIPGLIWINKEEMIFQIPWKHAAKHGWDINKDACLFRSWAIHTGRYKAGEKEPDPKTWKANFRCAMNSLPDIEEVKDQSRNKGSSAVRVYRMLPPLTKNQRKERKSKSSRDAKSKAKRKSCGDSSPDTFSDGLSSSTLPDDHSSYTVPGYMQDLEVEQALTPALSPCAVSSTLPDWHIPVEVVPDSTSDLYNFQVSPMPSTSEATTDEDEEGKLPEDIMKLLEQSEWQPTNVDGKGYLLNEPGVQPTSVYGDFSCKEEPEIDSPGGDIGLSLQRVFTDLKNMDATWLDSLLTPVRLPSIQAIPCAP
B3: GST-IRF-1 (pDEST-15-codon optimized IRF-1) [not stated] / Carboxy-terminus of Hsc70-interacting protein (CHIP), His-tagged, wild type [human] (parent complex)
chain 1: B2 chain 2
chain 2: B1 chain 2
B4: Carboxy-terminus of Hsc70-interacting protein (CHIP), untagged, wild type [human] / His-tagged UbcH5a [not stated] (parent complex)
chain 1: B1 chain 2
chain 2: not shown

Variants of: B1
Experiment: microtitre-well binding assay (streptavidin-HRP detection); value read at the highest dose, 20 uM Hsp70 wt peptide; His-CHIP coated on wells, biotin peptide in the mobile phase; parent: 45; read off a plot

Row | response [RLU] | Variant
1 | ~7 | chain 2 K30A

Variants of: B2
Experiment: microtitre-well binding assay (luminometer, anti-CHIP antibody); upper panel; value read at the highest dose, about 130 ng CHIP; GST-IRF-1 immobilized, His-CHIP in the mobile phase; parent: 18; read off a plot

Row | response [RLU] | Variant
2 | ~12 | chain 1 K30A

Variants of: B3
Experiment: microtitre-well binding assay; lower panel; value read at the highest dose, about 130 ng GST-IRF-1; His-CHIP coated on wells, GST-IRF-1 in the mobile phase; parent: 120; read off a plot

Row | response [RLU] | Variant
3 | ~110 | chain 2 K30A

Variants of: B4
Experiment: AlphaScreen; value read at the highest dose, 100 ng CHIP; untagged CHIP on protein A acceptor beads through anti-CHIP N-term pAb, His-UbcH5a on Nickel-chelate donor beads; parent: 2.3e+04; read off a plot

Row | response [AlphaScreen Units] | Variant
4 | ~9000 | chain 1 K30A
